Measurements published in paper PMC9023283.

Target: mature METTL8-Iso1 (Met1-Gln22 deleted) with a C-terminal His6 tag (human)
Experiment: SEC

mature METTL8-Iso1 (Met1-Gln22 deleted) with a C-terminal His6 tag (enzyme)
stoichiometry N: 8
